Source: patent publication US20240384250A1, “FIBROBLAST GROWTH FACTOR 23 MODULATING COMPOUNDS” (THE UAB RESEARCH FOUNDATION, priority 2021, published 2024)

Experiments:
FGFR4 = target: T1, FGFR4 (Homo sapiens, UniProt P22455); assay: Plate-based binding assay, FGFR4 coated, FLAG-sKL detected with anti-FLAG HRP; conditions: 40 ng FGFR4 coated, 80 ng FLAG-sKL, compared with FGFR1c
T1 construct: Fc-FGFR4 protein (human ectodomain) was immobilized; purchased R&D Systems 685FR050
T1 sequence (P22455 22-369 limits assumed): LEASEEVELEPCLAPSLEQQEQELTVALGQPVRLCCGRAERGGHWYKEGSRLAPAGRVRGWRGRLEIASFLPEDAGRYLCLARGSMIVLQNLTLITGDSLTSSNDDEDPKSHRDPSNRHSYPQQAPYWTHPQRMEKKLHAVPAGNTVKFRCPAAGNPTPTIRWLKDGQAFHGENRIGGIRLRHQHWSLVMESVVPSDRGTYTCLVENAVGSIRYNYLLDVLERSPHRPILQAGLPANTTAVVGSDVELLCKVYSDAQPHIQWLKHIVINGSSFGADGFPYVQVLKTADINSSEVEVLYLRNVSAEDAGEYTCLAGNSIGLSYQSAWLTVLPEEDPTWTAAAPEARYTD
Experimental: Proteins were coated on 96-well plates (MaxiSorp; 439454, Thermo Fisher Scientific), and proteins were added to wells in 100 μl of enzyme-linked immunosorbent assay (ELISA) coating buffer (E107, Bethyl Laboratories) with a lid placed overtop and incubated at 4° C. overnight. Plates were washed 5× with 350 μl of assay buffer (50 mM Tris [pH 7.4], 200 mM NaCl, 0.01% Tween 20) on a 50 TS microplate washer (BioTek). Plates were blocked for 1 hour in 200 μl of assay buffer with 0.5% BSA. Plates were washed as before, and proteins were incubated on plates in 100 μl of assay buffer with 0.5% BSA. Proteins or heparin was incubated in orders described in the respective figure legends. Assays using FLAG-tag-based detection were incubated with anti-FLAG coupled to HRP at 1:20,000, and assays using Fc detection were incubated with anti-human Fc coupled to HRP at 1:10,000. […] Reactions were stopped with ELISA stop solution (E115, Bethyl Laboratories) and analyzed using the Synergy HI plate reader (BioTek) at 450 nm wavelength. […] As a control to remove background absorbance values, wells were coated with an equal amount of BSA to match the amount of protein coated in experimental wells and treated the same as experimental wells. […]

FGF23/FGFR4 binding = target: T2, FGF23/FGFR4 binding (Homo sapiens, UniProt P22455+Q9GZV9, R179Q); assay: Surface plasmon resonance, FGF23 binding to surface FGFR4 with heparin or sKL in solution
T2 construct: Fc-FGFR4 protein (human ectodomain) was immobilized; purchased R&D Systems human FGF23 2604FG025/CF; human FGFR4 685FR050
T2 sequence (Q9GZV9 25-251 R179Q): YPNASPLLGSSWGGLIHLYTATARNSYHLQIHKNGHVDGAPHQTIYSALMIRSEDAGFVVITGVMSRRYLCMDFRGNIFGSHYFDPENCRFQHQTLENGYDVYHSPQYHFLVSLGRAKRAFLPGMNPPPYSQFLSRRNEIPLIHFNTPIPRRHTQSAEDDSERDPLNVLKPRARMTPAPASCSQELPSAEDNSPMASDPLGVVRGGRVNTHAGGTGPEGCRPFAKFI
T2 sequence (P22455 22-369 limits assumed): T1 sequence (P22455 22-369 limits assumed)
Experimental: For the direct quantitative analysis of label-free molecular interactions in real time, surface plasmon resonance studies were conducted using BIAcore T200 and T200 evaluation software (28975001, Cytiva). Sensor SA (BR100398) and CMS chips (BR100399) were from Cytiva. For the preparation of heparin chips, heparin (2 mg) and amine-PEG3-Biotin (2 mg, 21347, Pierce) were dissolved in 200 μl of H2O and 10 mg of NaCNBH3 was added. The reaction mixture was heated at 70° C. for 24 hours; an additional 10 mg of NaCNBH3 was added; and the reaction was heated at 70° C. for another 24 hours. After cooling to room temperature, the mixture was desalted with the spin column (3000 MWCO). Biotinylated heparin was collected, freeze dried, and used for chip preparation. Biotinylated heparin was immobilized to streptavidin chips according to the manufacturer's protocol. In brief, 20 μl of biotinylated heparin solution (0.1 mg/ml) in HBS-P running buffer (0.01 M N-2-hydroxyethylpiperazine-N′-2-ethanesulfonic acid, 0.15 M NaCl, 0.005% surfactant P20 [pH7.4]; BR100368, Cytiva) was injected over flow cell 2 of the streptavidin chip at a flow rate of 10 μl/min. The successful immobilization of heparin was confirmed by the observation of an approximately 200-resonance unit increase in the sensor chip. […] The response was monitored as a function of time (sensorgram) at 25° C.

binding of FLAG-sKL to coated FGFR4 (FGFR4): to a lesser extent
binding of FLAG-sKL to coated FGFR4 (FGFR4; listed as FLAG-sKL): to a lower extent
sKL's effect on increasing FGFR4 affinity for FGF23 relative to heparin (FGF23/FGFR4 binding): 4- to 5 fold
increase in FGF23/FGFR4 binding affinity (FGF23/FGFR4 binding; heparin or sKL in solution): approximately 13 fold
B1: sKL: recombinant soluble α-klotho ectodomain, mouse aa 35-982 and human aa 34-981, FLAG- or Strep/His-tagged, purified from HEK293 cells (protein)
chain: EPGDGAQTWARFSRPPAPEAAGLFQGTFPDGFLWAVGSAAYQTEGGWQQHGKGASIWDTFTHHPLAPPGDSRNASLPLGAPSPLQPATGDVASDSYNNVFRDTEALRELGVTHYRFSISWARVLPNGSAGVPNREGLRYYRRLLERLRELGVQPVVTLYHWDLPQRLQDAYGGWANRALADHFRDYAELCFRHFGGQVKYWITIDNPYVVAWHGYATGRLAPGIRGSPRLGYLVAHNLLLAHAKVWHLYNTSFRPTQGGQVSIALSSHWINPRRMTDHSIKECQKSLDFVLGWFAKPVFIDGDYPESMKNNLSSILPDFTESEKKFIKGTADFFALCFGPTLSFQLLDPHMKFRQLESPNLRQLLSWIDLEFNHPQIFIVENGWFVSGTTKRDDAKYMYYLKKFIMETLKAIKLDGVDVIGYTAWSLMDGFEWHRGYSIRRGLFYVDFLSQDKMLLPKSSALFYQKLIEKNGFPPLPENQPLEGTFPCDFAWGVVDNYIQVDTTLSQFTDLNVYLWDVHHSKRLIKVDGVVTKKRKSYCVDFAAIQPQIALLQEMHVTHFRFSLDWALILPLGNQSQVNHTILQYYRCMASELVRVNITPVVALWQPMAPNQGLPRLLARQGAWENPYTALAFAEYARLCFQELGHHVKLWITMNEPYTRNMTYSAGHNLLKAHALAWHVYNEKFRHAQNGKISIALQADWIEPACPFSQKDKEVAERVLEFDIGWLAEPIFGSGDYPWVMRDWLNQRNNFLLPYFTEDEKKLIQGTFDFLALSHYTTILVDSEKEDPIKYNDYLEVQEMTDITWLNSPSQVAVVPWGLRKVLNWLKFKYGDLPMYIISNGIDDGLHAEDDQLRVYYMQNYINEALKAHILDGINLCGYFAYSFNDRTAPRFGLYRYAADQFEPKASMKHYRKIIDSNGFPGPETLERFCPEEFTVCTECSFFHTRKS
modifications: left off: small tags and cut ends
notes: recombinant soluble α-klotho ectodomain, mouse aa 35-982 and human aa 34-981, FLAG- or Strep/His-tagged, purified from HEK293 cells
